Results published in publication doi:10.1101/2021.04.24.441256.

Target: the engineered RGA5_HMAs
Test: SPR

6xHis-tagged AVR-PikD (from UniProt C4B8B8 22-113) (natural protein)
Kd: 0.5 to 1.6 nM
